Measurements: US6573076B1, “Gene, group of genes, and novel β-glucosidase” (Ajinomoto Co., Inc., priority 1997, dated 2003)

Key:
[1] = format: physicochemical, Acetobacter xylinum subsp. sucrofermentans BPR 2001
Source text: The pH stability of β-glucosidase (G3ase) was studied. […] An optimum pH was about 5.5. The thermal stability of β-glucosidase (G3ase) was also studied.

[2] = Isoelectric point of β-glucosidase (G3ase) by IEF-PAGE; format: physicochemical, Acetobacter xylinum subsp. sucrofermentans BPR 2001
Source text: The molecular weight of β-glucosidase (G3ase) determined by SDS-PAGE was about 81,200 (FIG. 2). Its isoelectric point (pI) determined by IEF-PAGE was about 6.0 (FIG. 3).

[3] = Specific activity of purified β-glucosidase (G3ase), glucose release from cellotriose; format: biochemical, Acetobacter xylinum subsp. sucrofermentans BPR 2001; settings: purified sample; 1 U = 1 μmol glucose from G3 at 30° C. for 2 hr
Procedure: Acetobacter xylinum subsp. sucrofermentans BPR 2001 strain was cultured in CSL-Fru medium using a jar fermenter (inner volume: 3 L, culture medium volume: 1.8 L) at 30° C. and pH5 for 68 hours. The resulting culture medium (about […] in total) was subjected to centrifugation to give its supernatant (3,600 ml). The resulting supernatant was subjected to salting-out with 60%-saturated ammonium sulfate, and the resulting precipitate was collected by centrifugation. The collected precipitate was solubilized into distilled water of 352 ml and dialyzed against distilled water (15 L). The resulting precipitate was collected and extracted three times with 20 mM sodium acetate buffer (pH5.5) containing 0.15 M NaCl. G3ase activity was found in the resulting extract. The extract was subjected to CM-Toyopearl 650M column (Tosoh Co. Ltd.; 3.2 cm in diameter, 13.3 cm in length) equilibrated with 20 mM sodium acetate buffer (pH5.5) containing 0.15 M NaCl to absorb the G3ase activity. […]
After reaction at 30° C. for 2 hr, a reaction solution (300 μl) of a glucose-measuring kit (Glucose CII test Wako: Wako Pure Chemical Industries, Ltd.) was added to the mixture, and reacted for 15 min at a room temperature, followed by the determination of an amount of glucose based on absorbance at 505 nm.

B1: β-glucosidase (G3ase): β-glucosidase purified from Acetobacter xylinum subsp. sucrofermentans BPR 2001, amino acid sequence SEQ ID NO:7 (protein, listed as Acetobacter xylinum)
chain: MRLSRKIFLLSAVACGMALAQAPAFARHAHDGGGDQADARARQVLASMSLEDKMSLLFSVDGGGFNGSVAPPGGLGSAAYLRAPQGSGLPDLQISDAGLGVRNPAHIRRNGEAVSLPSGQSTASTWDMDMARQAGVMIGREAWQSGFNILLGGGADLTRDPRGGRNFEYAGEDPLQTGRMVGSTIAGVQSQHVISTLKHYAMNDLETSRMTMSADIDPVAMRESDLLGFEIALETGHPGAVMCSYNRVNDLYACENPYLLNKTLKQDWHYPGFVMSDWGATHSSARAALAGLDQESAGDHTDARPYFRTLLAADVKAGRVPEARINDMAERVVRALFAAGLVDHPAQRGPLDVVTDTLVAQKDEEEGAVLLRNQGNILPLSPTARIAVIGGHADAGVISGGGSSQVDPIGGEAVKGPGKKEWPGDPVYFPSSPLKAMQAEAPGARITYDPGTSIASAVRAARAADVVVVYATQFTFEGMDAPSMHLDDNADALITAVAAANPRTVVVMETGDPVLMPWNSSVAGVLEAWFPGSGGGPAIARLLFGKVAPSGHLTMTFPQAESQLAHPDIAGVTADNVFEMQFHTDQELVYDEGSDVGYRWFDRNHFKPLYPFGYGLTYTTFSTDGLKVTERHGQVTATFNVHNTGTRAGVDVPQVYVGLPDGGARRLAGWQRISLAPGESRQVSVQLEPRLLAHFDGKHDRWSVPSGTFRVWLASCATDDSQQTTMHLHGRTMAP
modifications: n at positions 15741 and 15767 may be a, g, t, or c
Question: Which “optimum pH” value [1] does the source give for B1 here?
Answer: about 5.5

Question: And the optimum temperature [1]?
Answer: about 40 °C

Question: What about the “temperature at which inactivated” value ([1]; 30-minute treatment at pH 5.5) of the same molecule?
Answer: ≥ 50 °C

Question: What about the “temperature at which stable” value ([1]; 30-minute treatment at pH 5.5) of the same molecule?
Answer: ≤ 30 °C

Question: And the “remaining activity (pH stability)” value ([1]; 3 h)?
Answer: ≥ 80%

Question: And the “isoelectric point (pI)” value [2]?
Answer: about 6.0

Question: And the Specific activity [3]?
Answer: 840 U/mg-portein
